The text below walks through data of publication PMC5532383.

The experiment deals with PPI peptide (…) in complex with pMHC-CD8wt monomer (HLA-A02:01). Description: micropipette adhesion frequency assay; biotinylated pMHC monomers on streptavidin-coated biotinylated RBCs brought into contact with single CTL clones; adhesion frequency against contact time, equilibrium at 4 s; 2D affinity AcKa in μm^4; room temperature (main figures) and 37°C (supplement).

With “CD8 co-receptor on human HCV-specific CTL clones (from UniProt P01732 22-235; P10966 22-210)”, the 2D affinity (AcKa) stood at 1e-06 μm^4.
